B1: GST-Cdc48 (full length) (enzyme, S. cerevisiae, UniProt P25694 1-835, looked up)
chain: MGEEHKPLLDASGVDPREEDKTATAILRRKKKDNMLLVDDAINDDNSVIAINSNTMDKLELFRGDTVLVKGKKRKDTVLIVLIDDELEDGACRINRVVRNNLRIRLGDLVTIHPCPDIKYATRISVLPIADTIEGITGNLFDVFLKPYFVEAYRPVRKGDHFVVRGGMRQVEFKVVDVEPEEYAVVAQDTIIHWEGEPINREDEENNMNEVGYDDIGGCRKQMAQIREMVELPLRHPQLFKAIGIKPPRGVLMYGPPGTGKTLMARAVANETGAFFFLINGPEVMSKMAGESESNLRKAFEEAEKNAPAIIFIDEIDSIAPKRDKTNGEVERRVVSQLLTLMDGMKARSNVVVIAATNRPNSIDPALRRFGRFDREVDIGIPDATGRLEVLRIHTKNMKLADDVDLEALAAETHGYVGADIASLCSEAAMQQIREKMDLIDLDEDEIDAEVLDSLGVTMDNFRFALGNSNPSALRETVVESVNVTWDDVGGLDEIKEELKETVEYPVLHPDQYTKFGLSPSKGVLFYGPPGTGKTLLAKAVATEVSANFISVKGPELLSMWYGESESNIRDIFDKARAAAPTVVFLDELDSIAKARGGSLGDAGGASDRVVNQLLTEMDGMNAKKNVFVIGATNRPDQIDPAILRPGRLDQLIYVPLPDENARLSILNAQLRKTPLEPGLELTAIAKATQGFSGADLLYIVQRAAKYAIKDSIEAHRQHEAEKEVKVEGEDVEMTDEGAKAEQEPEVDPVPYITKEHFAEAMKTAKRSVSDAELRRYEAYSQQMKASRGQFSNFNFNDAPLGTTATDNANSNNSAPSGAGAAFGSNAEEDDDLYS
notes: Cdc48, AAA ATPase; source: expressed in bacteria, purified
B2: his6-Flag (HF)-Doa1 (natural protein, S. cerevisiae, UniProt P36037 1-715, looked up)
chain: MGYQLSATLKGHDQDVRDVVAVDDSKVASVSRDGTVRLWSKDDQWLGTVVYTGQGFLNSVCYDSEKELLLFGGKDTMINGVPLFATSGEDPLYTLIGHQGNVCSLSFQDGVVISGSWDKTAKVWKEGSLVYNLQAHNASVWDAKVVSFSENKFLTASADKTIKLWQNDKVIKTFSGIHNDVVRHLAVVDDGHFISCSNDGLIKLVDMHTGDVLRTYEGHESFVYCIKLLPNGDIVSCGEDRTVRIWSKENGSLKQVITLPAISIWSVDCMSNGDIIVGSSDNLVRIFSQEKSRWASEDEINELSTQVEKSTISSKTIEFDESKLSPYEILQSPGRKEGQIVVVKSPQGTIEAHQFSNSSWKKVGDVVGAGATGNDKKIEFEGKTYDYVFDVDIEDGKPPLKLPINVSDNPYTAADNFLARYELPMSYRDQVVQFILKNTNGISLDQPNDNASSSAVSPSKTSVMKVLPVKQYLIMENYNPDTIFNGIVKINSNEKTFDDEILAQIGGALHDIDESWELLLSFANTIRSNWEIKTPAYDIVRLIVKKLPYSSDIKDYIEEGLGNKNITLTMLTVRILVNCFNNENWGVKLLESNQVYKSIFETIDTEFSQASAKQSQNLAIAVSTLIFNYSALVTKGNSDLELLPIVADAINTKYGPLEEYQECEEAAYRLTVAYGNLATVEPTLRQFANSVTWLANIKRSYGNVPRFKDIFDDLS
notes: Doa1, Cdc48 cofactor
B4: MBP-Wss1 (wild type) (enzyme, S. cerevisiae, UniProt P38838 1-269, looked up)
chain: MKTEGIKSPSAKYHDMAGSQRIPHKNPHIQKVAVLQSKPNKEDALNLIKEIAHKVSYLMKENHFKVTNLVEFYPRDQRLLGMNVNHGSKIMLRLRCSTDEFQFLPMECIMGTMLHELTHNLFGPHDKKFYNKLDELIGRQWVIEQRGLYDTFLGNGQRLGGRANLRSNRYPMTGISTNTGIVRKRGKGVKLGSLHPEGISSIDRGNSPRELAAFAAERRYRDDRWCGETKNNKDQIISDNISSSLEVVILDDDDEVLPGDTLIEVIDLT
notes: Wss1, yeast metalloprotease; Expressed with the pMAL-c2 vector; also called MBP-Wss1 WT; Wss1-beads (CNBr-crosslinked MBP-Wss1 beads); source: E. coli BL21pLysS (DE3), purified on amylose resin, eluted with maltose

Legend:
Conditions in all cases: both partners purified
MBP-Wss1 (wild type) = molecular target: B4; assay: pull-down; purified MBP-Wss1 proteins on amylose beads with purified Cdc48 or adaptor proteins; PAGE with Coomassie staining, western blot with α-His6, ImageJ
GST-Cdc48 (full length) = molecular target: B1; assay: pull-down; Cdc48 complexes preformed from purified GST-Cdc48 with a double molar excess of adaptors; MBP-Wss1 added in stoichiometric amount; glutathione beads; PAGE with Coomassie staining, ImageJ
his6-Flag (HF)-Doa1 [1] = molecular target: B2; assay: pull-down; purified HA-Wss1 (full length or truncated) on anti-HA beads with purified His6-Cdc48, GST-Cdc48 or HF-Doa1 (full length or truncated); western blot
his6-Flag (HF)-Doa1 [2] = molecular target: B2; assay: pull-down; purified MBP-Wss1 proteins on amylose beads with purified Cdc48 or adaptor proteins; PAGE with Coomassie staining, western blot with α-His6, ImageJ

Binder: B1
- stoichiometry N (MBP-Wss1 (wild type)): 1

Binder: B2
- stoichiometry N (GST-Cdc48 (full length)): 1

B3: HA-Wss1 (recombinant, wild type) (enzyme, S. cerevisiae, UniProt P38838 1-269, looked up)
chain: MKTEGIKSPSAKYHDMAGSQRIPHKNPHIQKVAVLQSKPNKEDALNLIKEIAHKVSYLMKENHFKVTNLVEFYPRDQRLLGMNVNHGSKIMLRLRCSTDEFQFLPMECIMGTMLHELTHNLFGPHDKKFYNKLDELIGRQWVIEQRGLYDTFLGNGQRLGGRANLRSNRYPMTGISTNTGIVRKRGKGVKLGSLHPEGISSIDRGNSPRELAAFAAERRYRDDRWCGETKNNKDQIISDNISSSLEVVILDDDDEVLPGDTLIEVIDLT
notes: Wss1, yeast metalloprotease (WLM family); Produced with the pRSET-B vector; also called WT; WT-Wss1; source: E. coli ArcticExpress (DE3), soluble, purified on anti-HA beads and eluted with HA peptide
- binding result (his6-Flag (HF)-Doa1 [1]): binds

Binder: B4
- binding result (his6-Flag (HF)-Doa1 [2]): binds
- stoichiometry N (GST-Cdc48 (full length)): 1

Reference: PMC4559962, “Wss1 metalloprotease partners with Cdc48/Doa1 in processing genotoxic SUMO conjugates” (eLife, 2015)
